Measurements: patent US20150139990A1 (DAINIPPON SUMITOMO PHARMA, published 2015)

What was measured:
Test in all cases: ELISA
[1] = target: T1, cCD81 (chicken CD81 construct with C-terminal V5 and 6xHis tags) (chicken)
T1 construct: as m30; not shown: C-terminal V5 and 6xHis tags
T1 chain: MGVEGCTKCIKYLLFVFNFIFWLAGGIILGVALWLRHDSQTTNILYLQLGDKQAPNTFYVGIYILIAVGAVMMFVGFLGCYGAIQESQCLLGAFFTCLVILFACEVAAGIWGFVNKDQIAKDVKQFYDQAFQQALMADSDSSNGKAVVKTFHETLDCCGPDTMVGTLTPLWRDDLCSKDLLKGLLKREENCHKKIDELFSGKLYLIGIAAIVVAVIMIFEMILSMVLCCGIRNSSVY
Description: (§1) To identify the epitopes to which each of the anti-human CD81 antibodies (002-A07 and 005-001) bind, ELISA assays were performed using human-chicken CD81 chimera constructs listed in Table 6. Each construct was transiently expressed in CHO cells and its cell membrane fraction was solubilized with detergents and immobilized onto a plate.
(§2) As control antibodies, human IgG4 antibody (Acris Antibodies GmbH) and mouse IgG antibody were used. Human-chicken chimera protein was captured via His tag introduced into the C-terminal by adding the membrane fraction (5 μg/100 μL/well) prepared (1) above to Ni NTA His Sorb plate (QIAGEN) in the presence of 1% (w/v) n-Octylglucoside and incubating for 3 hours at 4° C. After washing with TBST (TBS, 0.05% (v/v) Tween 20) three times, an anti-human CD81 antibody or a control antibody (50 μL/well) was added and incubated for 1 hour at room temperature (RT). After washing, 2000 fold-diluted HRP-labeled anti-human IgG4 antibody (Mouse anti-human IgG₄ HRP clone:HP6023 Beckman Coulter) or 1000 fold-diluted HRP-labeled anti-mouse IgG antibody (Invitrogen) (50 μL/well) were added. The plate was incubated for 1 hour at RT and washed with TBST three times. And then, peroxidase activity was determined by TMB One solution (Promega; Code 53025). The reaction was stopped with 2 M H₂SO₄ (50 μL) and absorbance at 450 nm was measured.

[2] = target: T2, c175h human-chicken CD81 chimera (chicken; human)
T2 construct: as m30; not shown: C-terminal V5 and 6xHis tags
T2 chain: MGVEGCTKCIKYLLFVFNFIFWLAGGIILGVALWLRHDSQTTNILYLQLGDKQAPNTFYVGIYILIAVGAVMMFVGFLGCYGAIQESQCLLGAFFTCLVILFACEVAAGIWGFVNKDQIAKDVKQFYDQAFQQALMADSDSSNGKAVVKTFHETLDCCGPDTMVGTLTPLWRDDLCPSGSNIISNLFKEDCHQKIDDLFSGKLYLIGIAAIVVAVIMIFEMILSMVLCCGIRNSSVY
Description: as §1, §2

[3] = target: T3, h175c human-chicken CD81 chimera (human; chicken, UniProt P60033 1-236)
T3 construct: as m30; not shown: C-terminal V5 and 6xHis tags
T3 chain: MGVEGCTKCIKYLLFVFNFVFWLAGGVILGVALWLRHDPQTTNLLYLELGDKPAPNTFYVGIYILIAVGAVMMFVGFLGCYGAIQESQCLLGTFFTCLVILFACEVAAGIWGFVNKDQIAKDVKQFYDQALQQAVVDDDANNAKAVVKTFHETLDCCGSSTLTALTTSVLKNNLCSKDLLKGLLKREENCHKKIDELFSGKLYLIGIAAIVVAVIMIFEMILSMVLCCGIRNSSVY
Description: as §1, §2

[4] = target: T4, h156c human-chicken CD81 chimera (human; chicken)
T4 construct: as m30; not shown: C-terminal V5 and 6xHis tags
T4 chain: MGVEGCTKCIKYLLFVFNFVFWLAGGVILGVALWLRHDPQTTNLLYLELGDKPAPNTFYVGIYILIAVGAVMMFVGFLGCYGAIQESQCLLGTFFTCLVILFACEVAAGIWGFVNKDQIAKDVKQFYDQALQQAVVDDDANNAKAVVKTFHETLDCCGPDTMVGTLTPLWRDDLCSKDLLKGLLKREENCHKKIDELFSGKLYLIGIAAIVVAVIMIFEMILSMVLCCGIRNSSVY
Description: as §1, §2

[5] = target: T5, h80c human-chicken CD81 chimera (human; chicken)
T5 construct: as m30; not shown: C-terminal V5 and 6xHis tags
T5 chain: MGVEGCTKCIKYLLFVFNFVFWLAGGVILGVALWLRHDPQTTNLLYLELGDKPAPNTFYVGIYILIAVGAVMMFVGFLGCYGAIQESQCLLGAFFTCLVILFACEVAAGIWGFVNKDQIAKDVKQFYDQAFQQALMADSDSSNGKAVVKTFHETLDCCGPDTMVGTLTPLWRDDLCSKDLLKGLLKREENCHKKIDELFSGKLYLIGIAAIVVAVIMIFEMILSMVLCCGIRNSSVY
Description: as §1, §2

[6] = target: T6, c156h human-chicken CD81 chimera (chicken; human, UniProt P60033 1-236)
T6 construct: as m30; not shown: C-terminal V5 and 6xHis tags
T6 chain: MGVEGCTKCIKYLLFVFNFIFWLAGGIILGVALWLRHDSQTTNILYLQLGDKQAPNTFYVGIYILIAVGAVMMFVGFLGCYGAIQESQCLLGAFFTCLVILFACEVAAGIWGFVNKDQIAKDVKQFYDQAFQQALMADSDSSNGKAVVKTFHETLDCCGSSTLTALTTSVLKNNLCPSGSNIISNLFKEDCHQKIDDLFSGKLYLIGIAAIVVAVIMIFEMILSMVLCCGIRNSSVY
Description: as §1, §2

[7] = target: T7, h138c human-chicken CD81 chimera (human; chicken)
T7 construct: as m30; not shown: C-terminal V5 and 6xHis tags
T7 chain: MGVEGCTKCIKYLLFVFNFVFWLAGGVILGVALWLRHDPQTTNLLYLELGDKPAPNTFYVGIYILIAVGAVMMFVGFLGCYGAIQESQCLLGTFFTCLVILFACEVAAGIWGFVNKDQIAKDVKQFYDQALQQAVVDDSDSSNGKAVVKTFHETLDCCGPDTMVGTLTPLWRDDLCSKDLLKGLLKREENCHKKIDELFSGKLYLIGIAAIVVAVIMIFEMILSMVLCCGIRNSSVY
Description: as §1, §2

absorbance at 450 nm relative to hCD81 [1]: < 10%
absorbance at 450 nm relative to hCD81 [2]: < 10%
binding result [3]: binds
absorbance at 450 nm relative to hCD81 [4]: < 10%
absorbance at 450 nm relative to hCD81 [5]: < 10%
absorbance at 450 nm relative to hCD81 [6]: < 10%
absorbance at 450 nm relative to hCD81 [7]: < 10%
B1: 002-A07 IgG4 antibody (antibody)
heavy: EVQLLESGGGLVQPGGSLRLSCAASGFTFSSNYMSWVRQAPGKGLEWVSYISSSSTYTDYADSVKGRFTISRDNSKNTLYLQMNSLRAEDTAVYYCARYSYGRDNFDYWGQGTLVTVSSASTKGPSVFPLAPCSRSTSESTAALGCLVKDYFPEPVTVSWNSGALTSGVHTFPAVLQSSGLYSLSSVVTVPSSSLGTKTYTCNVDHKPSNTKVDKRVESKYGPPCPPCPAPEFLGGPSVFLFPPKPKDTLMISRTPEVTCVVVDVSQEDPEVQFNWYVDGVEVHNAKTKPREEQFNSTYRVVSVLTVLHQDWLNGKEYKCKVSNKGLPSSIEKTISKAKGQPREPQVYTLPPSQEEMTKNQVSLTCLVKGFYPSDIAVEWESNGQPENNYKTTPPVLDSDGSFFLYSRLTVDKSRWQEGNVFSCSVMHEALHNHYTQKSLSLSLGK
light: QSVLTQPPSASGTPGQRVTISCTGSTSNIGAGYDTHWYQQLPGTAPKLLIYGNSNRPSGVPDRFSGSKSGTSASLAISGLRSEDEADYYCQSYDTNLSVWVFGGGTKLTVLGQPKAAPSVTLFPPSSEELQANKATLVCLISDFYPGAVTVAWKADSSPVKAGVETTTPSKQSNNKYAASSYLSLTPEQWKSHRSYSCQVTHEGSTVEKTVAPTECS
notes: human IgG4 S228P, lambda light chain
